Measured values published in patent US20190071490A1, “Preventing Post-Ictal Headaches” (Beth Israel Deaconess Medical Center, Inc., priority 2017, published 2019).
Positions count from the first letter of the chain named. In names and notes the source's numbering stands.

T1: human α-CGRP (Homo sapiens, UniProt P06881)
T1 construct: 1-37 (WT); purchased GenScript Corporation or Global Peptide Services
T1 sequence (P06881 83-119 limits assumed): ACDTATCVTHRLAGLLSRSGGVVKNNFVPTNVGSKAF

T2: rat α-CGRP (Rattus norvegicus, UniProt P01256)
T2 construct: rat α (1-37); purchased GenScript Corporation or Global Peptide Services
T2 sequence (P01256 83-119 limits assumed): T1 sequence (P06881 83-119 limits assumed) with A1S, D3N, N25D, K35E

B1: M46: G1 variant; L1 R28N; L2 G50A L56T; H2 E54K A57N S58E H61F; HC-FW3 L99T A100V (antibody, V domains shown)
VH: EVQLVESGGGLVQPGGSLRLSCAASGFTFSNYWISWVRQAPGKGLEWVAEIRSKSDNEATFYAEAVKGRFTISRDNAKNSLYLQMNSLRAEDTAVYYCTVYFDYGLAIQNYWGQGTLVTVSS
VL: EIVLTQSPATLSLSPGERATLSCKASKNVTTYVSWYQQKPGQAPRLLIYAASNRYTGIPARFSGSGSGTDFTLTISSLEPEDFAVYYCSQSYNYPYTFGQGTKLEIK
B2: M61: G1 variant; L1 R28N T30G; L2 A51H; H2 E54Q A57N H61F; HC-FW3 L99T A100V (antibody, V domains shown)
VH: B1 VH with K54Q, E58S
VL: B1 VL with T30G, A50G, A51H, T56L
B3: M55: G1 variant; L1 R28N T30A; L2 L56S; H2 E54K A57N S58E E64D; HC-FW3 L99T A100V (antibody, V domains shown)
VH: B1 VH with F61H, E64D
VL: B1 VL with T30A, A50G, T56S
B4: M62: G1 variant; L1 R28N T30G; L2 A51H L56T; H2 E54K A57N S58E; HC-FW3 L99T A100V (antibody, V domains shown)
VH: B1 VH with F61H
VL: B1 VL with T30G, A50G, A51H
B5: M47: G1 variant; L1 R28N; L2 G50A L56T; H2 E54K A57N S58G; HC-FW3 L99T A100V (antibody, V domains shown)
VH: B1 VH with E58G, F61H
VL: B1 VL
B6: M59: G1 variant; L1 R28N T30D; L2 L56S; H2 E54K A57N S58N H61F; HC-FW3 L99T A100V (antibody, V domains shown)
VH: B1 VH with E58N
VL: B1 VL with T30D, A50G, T56S
B7: M51: G1 variant; L1 R28N; L2 L561; H2 E54K A57G; HC-FW3 L99T A100V (antibody, V domains shown)
VH: B1 VH with N57G, E58S, F61H
VL: B1 VL with A50G, T56I
B8: M50: G1 variant; L1 R28N; L2 G50A L56T; H2 E54K A57R; HC-FW3 L99T A100V (antibody, V domains shown)
VH: B1 VH with N57R, E58S, F61H
VL: B1 VL
B9: M60: G1 variant; L1 R28N T30D; L2 L56S; H2 E54K A57N S58R H61F; HC-FW3 L99T A100V (antibody, V domains shown)
VH: B1 VH with E58R
VL: B1 VL with T30D, A50G, T56S
B10: M63: G1 variant; L1 R28N T30G; L2 G50A; H2 E54K A57N S58T; HC-FW3 L99T A100V (antibody, V domains shown)
VH: B1 VH with E58T, F61H
VL: B1 VL with T30G, T56L
B11: M53: G1 variant; L1 R28N; L2 L561; H2 E54K A57N S58G; HC-FW3 L99T A100V (antibody, V domains shown)
VH: B1 VH with E58G, F61H
VL: B1 VL with A50G, T56I
B12: M49: G1 variant; L1 R28N; L2 G50A L56T; H2 E54K A57N S58Y H61F; HC-FW3 L99T A100V (antibody, V domains shown)
VH: B1 VH with E58Y
VL: B1 VL
B13: M64: G1 variant; L1 R28N T30G; L2 G50A; H2 E54K A57N S58V; HC-FW3 L99T A100V (antibody, V domains shown)
VH: B1 VH with E58V, F61H
VL: B1 VL with T30G, T56L
B14: M56: G1 variant; L1 R28N T30D; L2 L56S; H2 E54K A57N H61F; HC-FW3 L99T A100V (antibody, V domains shown)
VH: B1 VH with E58S
VL: B1 VL with T30D, A50G, T56S
B15: M57: G1 variant; L1 R28N T30D; L2 L56S; H2 E54K A57N S58E; HC-FW3 L99T A100V (antibody, V domains shown)
VH: B1 VH with F61H
VL: B1 VL with T30D, A50G, T56S
B16: M52: G1 variant; L1 R28N; L2 L561; H2 E54K A57N S58A; HC-FW3 L99T A100V (antibody, V domains shown)
VH: B1 VH with E58A, F61H
VL: B1 VL with A50G, T56I
B17: M48: G1 variant; L1 R28N; L2 G50A L56T; H2 E54K A57N S58L; HC-FW3 L99T A100V (antibody, V domains shown)
VH: B1 VH with E58L, F61H
VL: B1 VL
B18: M54: G1 variant; L1 R28N T30A; L2 G50A; H2 E54K A57N S58P; HC-FW3 L99T A100V (antibody, V domains shown)
VH: B1 VH with E58P, F61H
VL: B1 VL with T30A, T56L
B19: M58: G1 variant; L1 R28N T30D; L2 L56S; H2 E54K A57N S58I H61F; HC-FW3 L99T A100V (antibody, V domains shown)
VH: B1 VH with E58I
VL: B1 VL with T30D, A50G, T56S
B20: M25: G1 variant; L1 R28N; HC-FW3 L99T A100V (antibody, V domains shown)
VH: B1 VH with K54E, N57A, E58S, F61H
VL: B1 VL with A50G, T56L

molecular target: T1, human α-CGRP; test: Biacore SPR affinity of Fab fragments to N-biotinylated human α-CGRP on SA chip; type: binding; details: 37° C., screening mode except underlined values
Description: (§1) Affinity determination of the Fabs. Affinities of the anti-CGRP monoclonal antibodies were determined at either 25° C. or 37° C. using the BIACORE3000™ surface plasmon resonance (SPR) system (Biacore, INC, Piscataway N.J.) with the manufacture's own running buffer, HBS-EP (10 mM HEPES pH 7.4, 150 mM NaCl, 3 mM EDTA, 0.005% v/v polysorbate P20). Affinity was determined by capturing N-terminally biotinylated CGRP peptides (custom ordered from GenScript Corporation, New Jersey or Global Peptide Services, Colorado) via pre-immobilized streptavidin on SA chip and measuring binding kinetics of antibody Fab titrated across the CGRP surface. Biotinylated CGRP was diluted into HBS-EP and injected over the chip at a concentration of less than 0.001 mg/ml. Using variable flow time across the individual chip channels, two ranges of antigen density were achieved: <50 response units (RU) for detailed kinetic studies and about 800 RU for concentration studies and screening. […] After each binding cycle, surfaces were regenerated with 25 mM NaOH in 25% v/v ethanol, which was tolerated over hundreds of cycles. Kinetic association rate (kon) and dissociation rate (koff) were obtained simultaneously by fitting the data to a 1:1 Langmuir binding model (Karlsson et al. (1994). Methods Enzymology 6. 99-110) using the BIAevaluation program. Global equilibrium dissociation constants (KD) or “affinities” were calculated from the ratio KD=koff/kon.
(§2) Biacore assay for affinity determination. […] All Biacore assays were conducted in HBS-EP running buffer (10 mM HEPES pH 7.4, 150 mM NaCl, 3 mM EDTA, 0.005% v/v polysorbate P20). CGRP surfaces were prepared by diluting the N-biotinylated CGRP to a concentration of less than 0.001 mg/mL into HBS-EP buffer and injecting it across the SA sensor chip using variable contact times. Low capacity surfaces, corresponding to capture levels <50 response units (RU) were used for high-resolution kinetic studies, whereas high capacity surfaces (about 800 RU of captured CGRP) were used for concentration studies, screening, and solution affinity determinations. […] Samples were typically injected for 1 minute at 100 μL/min and dissociation times of at least 10 minutes were allowed. After each binding cycle, surfaces were regenerated with 25 mM NaOH in 25% v/v ethanol, which was tolerated over hundreds of cycles. An entire titration series (typically generated in duplicate) was fit globally to a 1:1 Langmuir binding model using the BIAevaluation program. This returned a unique pair of association and dissociation kinetic rate constants (respectively, kon and koff) for each binding interaction, whose ratio gave the equilibrium dissociation constant (KD=koff/kon).
(§3) High-resolution analysis of binding interactions with extremely slow off rates. […] The protocol described above was used with the following modifications. The association rate constant (kon) was determined by injecting a 2-fold titration series (in duplicate) spanning 550 nM-1 nM for 30 seconds at 100 μL/min and allowing only a 30 second dissociation phase. The dissociation rate constant (koff) was determined by injecting three concentrations (high, medium, and low) of the same titration series in duplicate for 30 seconds and allowing a 2-hour dissociation phase. The affinity (KD) of each interaction was obtained by combining the kon and koff values obtained in both types of experiments, as shown in Table 4.

| α-human koff [s⁻¹] | Molecule |
| --- | --- |
| 0.000539 | B1 |
| 0.000459 | B2 |
| 0.000478 | B3 |
| 0.000557 | B4 |
| 0.000332 | B5 |
| 0.000524 | B6 |
| 0.000131 | B7 |
| 0.000406 | B8 |
| 0.000911 | B9 |
| 0.0015 | B10 |
| 0.000374 | B11 |
| 0.000595 | B12 |
| 0.00132 | B13 |
| 0.000479 | B14 |
| 0.000322 | B15 |
| 0.000281 | B16 |
| 0.000842 | B17 |
| 0.00179 | B18 |
| 0.00195 | B19 |

molecular target: T2, rat α-CGRP; test: Biacore SPR affinity of Fab fragments to N-biotinylated rat α-CGRP on SA chip; type: binding; details: 37° C., screening mode except underlined values
Description: as §1, §2, §3

| α-rat koff [s⁻¹] | α-rat koff (1/s) | Molecule |
| --- | --- | --- |
| 0.00294 |  | B1 |
| 0.00521 |  | B2 |
| 0.00585 |  | B3 |
| 0.00575 |  | B4 |
| 0.00823 |  | B5 |
| 0.0123 |  | B6 |
| 0.00118 |  | B7 |
| 0.0053 |  | B8 |
| 0.0272 |  | B9 |
| 0.00265 |  | B10 |
| 0.00191 |  | B11 |
| 0.0148 |  | B12 |
| 0.0234 |  | B13 |
| 0.00935 |  | B14 |
| 0.0104 |  | B15 |
| 0.00229 |  | B16 |
| 0.0343 |  | B17 |
| 0.00216 |  | B18 |
|  | No binding | B19 |
| 0.0014 |  | B20 |
